How the values were obtained:
[1] = biological target: Human 4-1BB + Mouse 4-1BB domain4A,4B,NF(aa119-186) (human; mouse); test: FACS, transiently transfected Expi293 cells (cell E)
[2] = biological target: Human 4-1BB + Mouse 4-1BB domain3B,4A,4B(aa97-159) (human; mouse) (UniProt Q07011); test: FACS, transiently transfected Expi293 cells (cell D)
[3] = biological target: Human 4-1BB + Mouse 4-1BB domain1,2A,2B(aa24-86) (human; mouse); test: FACS, transiently transfected Expi293 cells (cell A)
[4] = biological target: human 4-1BB full length, on the cell surface (human) (UniProt Q07011); test: FACS, transiently transfected Expi293 cells (WT)
[5] = biological target: Human 4-1BB + Mouse 4-1BB domain3A,3B,4A(aa87-133) (human; mouse) (UniProt Q07011); test: FACS, transiently transfected Expi293 cells (cell C)
[6] = biological target: Human 4-1BB + Mouse 4-1BB domain2B,3A,3B(aa64-118) (human; mouse) (UniProt Q07011); test: FACS, transiently transfected Expi293 cells (cell B)
[7] = biological target: Human 4-1BB + Mouse 4-1BB domain1,4B,NF(aa24-46,aa139-186) (human; mouse); test: FACS, transiently transfected Expi293 cells (cell F)
[8] = biological target: h4-1BB-His antigen (Acro company, product number: Q07011-1) (human) (UniProt Q07011); test: BLI (Fortebio), h4-1BB-His
[9] = biological target: human 4-1BB full length, on the cell surface (human) (UniProt Q07011); test: FACS competition, CHO-K1-hu4-1BB; labelled Bio-4-1BBL 2 µg/ml fixed, competitor varied
[10] = biological target: human 4-1BB full length, on the cell surface (human) (UniProt Q07011); test: FACS competition, CHO-K1-hu4-1BB; labelled Bio-Hanke10F4 1.5 µg/ml fixed, competitor varied

Urelumab (antibody), sequence (VH): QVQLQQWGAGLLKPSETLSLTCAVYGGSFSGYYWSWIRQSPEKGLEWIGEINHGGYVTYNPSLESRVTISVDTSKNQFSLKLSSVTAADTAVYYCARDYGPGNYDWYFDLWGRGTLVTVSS
Urelumab (antibody), sequence (VL): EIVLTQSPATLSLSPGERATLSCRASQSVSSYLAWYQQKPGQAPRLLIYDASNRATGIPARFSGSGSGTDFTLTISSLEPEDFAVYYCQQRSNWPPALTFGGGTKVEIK
human 4-1BB full length, on the cell surface (human), sequence (Q07011 24-255 limits assumed): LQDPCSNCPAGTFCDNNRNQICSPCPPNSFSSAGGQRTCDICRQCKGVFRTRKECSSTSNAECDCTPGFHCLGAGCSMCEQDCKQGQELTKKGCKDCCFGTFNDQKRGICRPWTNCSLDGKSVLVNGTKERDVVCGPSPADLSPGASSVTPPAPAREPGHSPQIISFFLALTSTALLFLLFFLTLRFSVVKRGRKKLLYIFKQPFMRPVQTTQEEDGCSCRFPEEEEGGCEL
human 4-1BBL-hIgG (Fc fusion), sequence (chain, part): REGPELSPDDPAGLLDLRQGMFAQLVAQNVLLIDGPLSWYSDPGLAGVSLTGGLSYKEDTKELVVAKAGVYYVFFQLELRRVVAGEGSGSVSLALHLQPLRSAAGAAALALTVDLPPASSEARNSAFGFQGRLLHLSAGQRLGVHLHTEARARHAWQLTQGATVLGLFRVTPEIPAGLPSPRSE
Human 4-1BB + Mouse 4-1BB domain1,2A,2B(aa24-86) (human; mouse), sequence (chain, as listed by the source): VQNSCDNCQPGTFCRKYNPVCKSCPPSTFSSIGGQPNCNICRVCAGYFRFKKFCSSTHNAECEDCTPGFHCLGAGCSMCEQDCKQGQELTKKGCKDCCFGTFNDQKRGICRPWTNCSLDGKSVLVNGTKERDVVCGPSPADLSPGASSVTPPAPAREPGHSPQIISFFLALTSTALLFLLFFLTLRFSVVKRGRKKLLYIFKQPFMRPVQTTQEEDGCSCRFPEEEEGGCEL
Human 4-1BB + Mouse 4-1BB domain3B,4A,4B(aa97-159) (human; mouse), sequence (Q07011 other isoform, or with tags, fused parts or gaps): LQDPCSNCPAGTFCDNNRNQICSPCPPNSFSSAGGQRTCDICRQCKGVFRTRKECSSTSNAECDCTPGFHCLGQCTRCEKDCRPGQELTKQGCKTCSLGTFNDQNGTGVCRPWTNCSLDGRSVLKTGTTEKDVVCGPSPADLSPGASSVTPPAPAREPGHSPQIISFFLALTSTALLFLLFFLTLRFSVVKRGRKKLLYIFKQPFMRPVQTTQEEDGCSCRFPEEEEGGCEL
Human 4-1BB + Mouse 4-1BB domain1,4B,NF(aa24-46,aa139-186) (human; mouse), sequence (chain, as listed by the source): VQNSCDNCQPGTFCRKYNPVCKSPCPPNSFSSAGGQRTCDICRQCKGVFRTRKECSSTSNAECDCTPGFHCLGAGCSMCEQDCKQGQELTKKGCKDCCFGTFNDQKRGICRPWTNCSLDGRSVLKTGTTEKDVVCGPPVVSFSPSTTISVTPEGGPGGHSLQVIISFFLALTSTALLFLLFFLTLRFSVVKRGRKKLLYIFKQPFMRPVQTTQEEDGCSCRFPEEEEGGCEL
Human 4-1BB + Mouse 4-1BB domain3A,3B,4A(aa87-133) (human; mouse), sequence (Q07011 other isoform, or with tags, fused parts or gaps): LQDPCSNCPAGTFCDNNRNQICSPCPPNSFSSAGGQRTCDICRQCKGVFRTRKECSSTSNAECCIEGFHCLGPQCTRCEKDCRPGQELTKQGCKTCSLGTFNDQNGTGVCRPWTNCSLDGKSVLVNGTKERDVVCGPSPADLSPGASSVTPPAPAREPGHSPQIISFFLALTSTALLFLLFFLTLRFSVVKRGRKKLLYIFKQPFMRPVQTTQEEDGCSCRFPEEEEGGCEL
Human 4-1BB + Mouse 4-1BB domain4A,4B,NF(aa119-186) (human; mouse), sequence (chain, as listed by the source): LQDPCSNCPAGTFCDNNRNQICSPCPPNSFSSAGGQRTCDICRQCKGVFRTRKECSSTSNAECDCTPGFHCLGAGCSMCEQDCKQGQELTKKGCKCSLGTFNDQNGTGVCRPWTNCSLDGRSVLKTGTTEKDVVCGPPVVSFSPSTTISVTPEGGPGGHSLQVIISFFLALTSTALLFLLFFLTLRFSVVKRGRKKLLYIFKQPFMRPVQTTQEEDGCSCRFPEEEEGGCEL
h4-1BB-His antigen (Acro company, product number: Q07011-1) (human), sequence (Q07011 24-186): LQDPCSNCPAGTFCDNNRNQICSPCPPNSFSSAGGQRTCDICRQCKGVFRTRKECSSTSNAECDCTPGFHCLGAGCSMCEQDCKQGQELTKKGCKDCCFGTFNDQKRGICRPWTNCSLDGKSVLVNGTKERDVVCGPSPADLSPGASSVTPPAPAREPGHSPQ
Human 4-1BB + Mouse 4-1BB domain2B,3A,3B(aa64-118) (human; mouse), sequence (Q07011 other isoform, or with tags, fused parts or gaps): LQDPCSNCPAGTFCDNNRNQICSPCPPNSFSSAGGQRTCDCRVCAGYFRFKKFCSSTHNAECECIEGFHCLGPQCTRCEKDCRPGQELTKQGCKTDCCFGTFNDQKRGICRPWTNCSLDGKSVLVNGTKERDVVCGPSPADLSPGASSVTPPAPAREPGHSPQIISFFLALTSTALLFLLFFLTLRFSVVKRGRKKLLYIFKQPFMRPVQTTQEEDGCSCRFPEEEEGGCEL

Mean fluorescence intensity [1]	Mean fluorescence intensity [2]	Mean fluorescence intensity [3]	Mean fluorescence intensity [4]	Mean fluorescence intensity [5]	Mean fluorescence intensity [6]	Mean fluorescence intensity [7]	Kd [8] [nM]	FACS signal of Bio-4-1BBL at (B:A) Ratio 0.03906 [9]	FACS signal of Bio-4-1BBL at (B:A) Ratio 0.15625 [9]	FACS signal of Bio-4-1BBL at (B:A) Ratio 0.625 [9]	FACS signal of Bio-4-1BBL at (B:A) Ratio 2.5 [9]	FACS signal of Bio-4-1BBL at (B:A) Ratio 10 [9]	FACS signal of Bio-4-1BBL at (B:A) Ratio 40 [9]	FACS signal of Bio-Hanke10F4 at (B:A) Ratio 0.058593 [10]	FACS signal of Bio-Hanke10F4 at (B:A) Ratio 0.23437 [10]	FACS signal of Bio-Hanke10F4 at (B:A) Ratio 0.9375 [10]	FACS signal of Bio-Hanke10F4 at (B:A) Ratio 3.75 [10]	FACS signal of Bio-Hanke10F4 at (B:A) Ratio 15 [10]	FACS signal of Bio-Hanke10F4 at (B:A) Ratio 60 [10]	Substance
194000	123000	1820	146000	193000	313000	4910	5.76	–	–	–	–	–	–	–	–	–	–	–	–	Urelumab (antibody)
–	–	19000	–	–	–	–	–	–	–	–	–	–	–	–	–	–	–	–	–	Utomilumab (antibody)
–	–	–	–	–	–	–	–	7740	7910	6850	6320	3770	3220	6310	6580	4860	2290	584	254	human 4-1BBL-hIgG (Fc fusion)

Reference: patent US20220411523A1
